# Test: soluble on expression in E. coli; label from the status in PepcDB or PDB records
row,Sequence,soluble on expression in E. coli
1,MSLADIPYGTDYPDAPWIDRDGHVLIDDGGKPTQVHRGQARIAYRLAERYQDKLLHVAGIGWHSWDGRRWAADDRGEAKRAVLAELRQALSDSLNDKELRADVRKCESASGVAGVLDLAAALVPFAATVADLDSDPHLLNVANGTLDLHTLKLRPHAPADRITKICRGAYQSDTESPLWQAFLTRVLPDEGVRGFVQRLAGVGLLGTVREHVLAILIGVGANGKSVFDKAIRYALGDYACTAEPDLFMHRENAHPTGEMDLRGVRWVAVSESEKDRRLAESTIKRLTGGDTIRARKMRQDFVEFTPSHTPLLITNHLPRVPGDDTAIWRRIRVVPFEVVIPADEQDRELDARLQLEADSILSWAVAGWSDYQRIGLSQPDAVLAATSNYREDSDTIKRFIDDECVTSSPVLKATTTHLFEAWQRWRVQEGVPEISRKAFGQSLDTHGYPVTEGHHHHHH,not soluble
2,MDRLGSFSNDPSDKPPCRGCSSYLMEPYIKCAECGPPPFFLCLQCFTRGFEYKKHQSDHTYEIMTSDFPVLDPSWTAQEEMALLEAVMDCGFGNWQDVANQMCTKTKEECEKHYMKYFINNPLFASTLLNLKQAEEAKTADTAIPFHSTDDPPRPTFDSLLSRDMAGYMPARADFIEEFDNYAEWDLRDIDFVEDDSDILHALKMAVVDIYHSRLKERQRRKKIIRDHGLINLRKFQLMERRYPKEVQDLYETMRRFARIVGPVEHDKFIESHACRWFLSLEQYLCVYIYINRRDNGVFYVKFYK,soluble
3,MIVRPVTSADLPALIELARSTGTGLTTLPANEQRLQHRVSWAEKAFRGEAERGDADYLFVLEDDAGKVVGISAIAGAVGLREPWYNYRVGLTVSASQELNIHREIPTLFLANDLTGNSELCSLFLHADHRSGLNGKLLSRARFLFIAEFRHLFGDKLIAEMRGMSDEEGRSPFWESLGRHFFKMEFSQADYLTGVGNKAFIAELMPKFPLYTCFLSEEARGVIGRVHPNTEPALAMLKAEGFSYQGYVDIFDAGPAIEAETDKIRAIAESQNLVLAVGTPGDDAEPYLIHNRKREDCRITAAPARAAAGTLVVDPLTAKRLRLSAGASVRAVPLSAQKRG,not soluble
4,MAGDSTDKAFQNFAYLLFLRNILTKSNFSETKNKPEAYNQFLFQKLKKILNLFQILQFILENIHCKPGDRIAILFAYSNDLDRNVVKNVWNTADFGFYSHFLVFANVRFDVRQEEEILFHYSYLNATSSVFSKLPDSSLGFGNNATGSDSLKTIDVGKFYSNNQVPVCGSIVLILSKRYPNELKILEVSRKVQEHHGIVHVISSVFPSGGTQSKALYKLTSRTNGICAFQEDSQFSEVSDFINISSKYYDGWHLLSHIVGSLPISGTPYPIYSVNPRVSGLGSLVLPSLSVPFSGRFYFVVTVQDHGPIDTFRSINLSWYNAKSRSSNHFLISNGQKYEINREEWFDLDPVIYNMTLNYSYLTFQDIQIRVYSSRPPEDWLPCCDSTN,not soluble
5,MGSDKIHHHHHHLLVKRARLIVGNCWYLLHRIPVEIKDNSQYDIKLSDFGLSEFAESAKFDPVLCGTGPYMSGYRLEGVQGYQHSYVDDVWALAVCLFFLLYNEWPFRKRDGNVKDLLGFDPSQMWVPFPQGCRITAKRVGQGLIIENVNWPDASGDFSNYKGYDLLSYVKDQSVLEFSKVGGEIYEFRAGDDVEQINHQMNAALTEHECFIRFPGQEEDRKRRFRNEVLAGIREYWIQSDIEYGSGTRKQDLLESLATGSTEHSILQKLRVLPAYKSARKRSAEQSELGMLSFGLSGILKNSK,not soluble
6,MLEVREVEKSFKKKKVLKGGSLSVNKGEIVGLLGPNGAGKTTLFNSIIGFISVDKGKVLLDGEDVTHLPPFKRAQKGLAFLPQEHTLFEDLTVLENLLIFLEFFTDSKEEAITKAEALLEDFGLLELKDQKAYALSGGQKRRLEIARSLITTPKYVLLDEPFAGLDPIIVSEIREIVKNLKNNGIGVLITDHNVRETIKMVDRVYIISEGKVLAHGKPEEVVNNEAVRKTYLGVDFKL,soluble
7,STWTPRNRSEDEEEDENIDLEKNDDDEPNKPTDKGDSTDTEADHKLINPGEIPCDRFKDETHSKDLDPPLTDSELKEGEERTDLLAEQAKPTTSSPSVLQRGSDLITQEKPSEPGHAASTGNSNVTSVIHSPPSAPKPKLWSLAEIATSSDRCKGSSEASQAAGLSQSTVIASAASPTRSSPQCPLPNNTVLSRPIYYTSPFYPGYTNYSTFGHLHSSHGTNTSSTAHFNGLSQTVLNRAEALVRESKVRSQTQVDLCKDSPYELKKGMSNI,not soluble
8,MEWHFSLKEPHVLLFLPFEKYALPYPDPSQSWLSFGLTEIPVPEWTKNLEIITPWRPDFLKFANAQFRCSPEINQTCTHDGALLQLSKYRGFNQNCFLDLLERVKPGGWIIIGGNKTSGADSMMKWVKKIVPITNKFSKNHGLVFWIQVPQQIEKQNTAQLRSPPLTFENKFQTTSGMFSHGRIDPGSAVLASHMCKTISGKTADFGAGWGFLSHAALERSEKLTALDLYEADYNALKAAKQHLKHITTSLPIHFYWHDLVHEPITNLYDTIISNPPFHTQQTTDVSLGQHFIINAAKYLKPGGNLLLVANRHLPYETLLKRLFRTVLIYEKAHGFKVIEAYR,not soluble
9,MLHVAGRIEDYALIGDMQIAALVCQDGTVDWLCLPRFDSHAVFAGLLGTEEHGFWRLGPAHASDAEPPRASRRTYRGDSLILESEWDTPRGTVRVTDFMPPRDGAPQLIRIVEGVTGRVPMRSALRMRFSYGLEHHHHHH,not soluble
10,MGSDKIHHHHHHMERAGLAALEDALRNGLSEPFCKAIETIGQSNGRLIITGVGKSGHIGAKLAATFASTGTPAFFVHAAEANHGDLGMIGGDDVVLAISKGGESAELRSIINYSRRFSIPLIALTCSENSSLARASDIVLLVPNEQEACPLGLAPTTSTLMQLALGDALAVALLEARNFTAGDFKVFHPGGKLGASLTLVSDIMHTGDRVPLVNKGTAMPEAVGVLSRKHFGCVGILDEDGRLCGIVTEGDMARNLSRNLAELVVDDIMTRSPKTVKKSVLATSALATLEKFHIGALIVVDDDNRPIGLVHFHDLLRIGVA,not soluble
11,MNMLEKIQSQLEHLSKSERKVAEVILASPDNAIHSSIAALALEANVSEPTVNRFCRSMDTRGFPDFKLHLAQSLANGTPYVNRNVNEDDSVESYTGKIFESAMATLDHVRHSLD,not soluble
12,MGLWYRMLENQDLEEVITVRVQDPRVQNEGSWNSYVDYKIFLHTNSKAFTAKTSCVRRRYREFVWLRKQLQRNAGLVPVPELPGKSTFFGGSDEFIEKRRQGLQHFLEKVLQSVVLLSDSQLHLFLQSQLSVPEIEACVQGRGAMTVSDAILSYAMSNCGWAQEERQSTSHLAKGDQLNSCCFLPRSGRRSSPSPPLSEEKEQLETWAPVMDSEGPSSESPTLLPSSSLPACWDPARPEEGLSVSQPARRAVAADQAGPMEPTQLDTAWDK,soluble
13,MSLKTLFDKTNLGTINMKNRFLRGALWTALADEKGHMTNELSDVYEELARGGVGTIVTGYAFVTENEQPNPRMMGIYDDSFIPEYKEFTDKIHRLGSNIIMQIVYGGFMTEFNVGERVIWGPSTTKNEVTGTLSREMTKEDIKYLVNAYAEAALRVKKSGFDGVEIHGGHGYLVSQFLSPYYNKRTDEYGGSIENRGRFVFEIFKAIREKVGEKFPILIKLNSSDYVKEGGLTIEDSLYVAERLAELGIDAIEVTGGNESIEEVMKNNLGPSRTKVAISKDRESYFKEYAIKLAERINKPVILSGGNRHFDVMEELLNDTNIEYFSLSRPLTAEPDLINKWYSGDLKKPKCKSCNQCYKTYGKRCIFNIKEGHHHHHH,soluble
14,MGHHHHHHSHMSDWEDDDFEPEVSTFKRAEPAPEPVKIVDAPPPPQKAAPAAPKTLKAAPTFAMESLGRELTSAEKEAIQKKNDLALARDLFGDDDSAEATDEAKTYANIMSKADFEYWGERVGGFLASRSKASCYGDMIGKLLTSVTDEMTPAEILKMVTFLQQISAAKKTAEKTKAKATTAAKPAAAANKKNAKATLKVTKGNDSMYDDYGDDQDDYDDY,soluble
15,MEQKKKKNIGFNIIKDDPTDGHRGFGAGALSLENVSPVIIDVEAGEAFVDMGAMHARSAVERGIKFLPDRSAVPNGKPYWIVWVTIERREDGPYYAGVTACEMTIDREARRGYKLLPEHVNRLDKSLKRHIIVDHMDAKSKRVLADFLKGHDIGMWNRSSDELKKGLEGEL,not soluble
16,MGSDKIHHHHHHAKTTTQHGNALAAYNVKRYKTVKNRNLFVKRYAFQQSYTNIFQTSPTQISSTKGKAVTFKSNVFLPVTYQRSADWGNPQSEVLTPNGNTLYELITTSSQSTTGRIVRYNLGALRHFGITSTHMDALRRATYDHSVGKLTATDKAILKNVTVGPLFNTGHGQSLARNPKNGQLWFIGKPGAVKSNVQQVSTKTLKPSTKVNFTLKNTVPMGSNLTFDKHGKAYFFTYSNGGWAPKGAVKIYQGTISTKSVHFHLVMQGLRYAPGTKPQSMAYNAKRNRLYFVSDSSLASIPVSKLGKLKASQVEGTNLNGHREFEGLQFTSNGSGYLLVNKGAELMQTTHATF,not soluble
17,GSHMGFLSGKRILVTGVASKLSIAYGIAQAMHREGAELAFTYQNDKLKGRVEEFAAQLGSDIVLQCDVAEDASIDTMFAELGKVWPKFDGFVHSIGFAPGDQLDGDYVNAVTREGFKIAHDISSYSFVAMAKACRSMLNPGSALLTLSYLGAERAIPNYNVMGLAKASLEANVRYMANAMGPEGVRVNAISAGPIRTLAASGIKDFRKMLAHCEAVTPIRRTVTIEDVGNSAAFLCSDLSAGISGEVVHVDGGFSIAAMNELELK,soluble
18,MEKISDLIECIAYEKNLPKEMISKVIQGCLLKMAQNELDPLARYLVVEENKQLQLIQLVEVLEDGDERLVNDPSKYISLSKAKEMDPSVKIKDELSYSLSLESMKQGAINRLFKDLQYQLEKALEDSHFEAFQKRLNSVLMGQVILVDHNQNTFIEIEQQFQGVLSMRHRIKGESFKVGDSIKAVLTQVKRTKKGLLLELSRTTPKMLEALLELEVPEIKDKEIEIIHCARIPGNRAKVSFFSHNARIDPIGAAVGVKGVRINAISNELNKENIDCIEYSNVPEIYITLALAPAKILSVEIKKIPIEELNAEEKESIQERFIVNNHLQKAKVRLLDIEKSKAIGKGGVNVCLASMLTGYHIEFETIPSVKENAENESEKETPKVGVEALESLFKNLEHHHHHH,soluble
19,STKTNVVEVLNKQVANWNVLYVKLHNYHWYVTGPHFFTLHEKFEEFYNEAGTYIDELAERILALEGKPLATMKEYLATSSVNEGTSKESAEEMVQTLVNDYSALIQELKEGMEVAGEAGDATSADMLLAIHTTLEQHVWMLSAFLK,soluble
20,MHHHHHHSSGVDLGTENLYFQSMNLPEHWTDMNHQLFCMVQLEPGQSEYNTIKDKFTRTCSSYAIEKIERIQNAFLWQSYQVKKRQMDIKNDHKNNERLLFHGTDADSVPYVNQHGFNRSCAGKNAVSYGKGTYFAVDASYSAKDTYSKPDSNGRKHMYVVRVLTGVFTKGRAGLVTPPPKNPHNPTDLFDSVTNNTRSPKLFVVFFDNQAYPEYLITFTA,soluble
21,MGSDKIHHHHHHMKLLCSLASPYARCVRSLIRYLGIEDIEEVLVNPMENTAQLLDVNPLGQIPCLITNDGVPIFDSEVIMRYLDTELGAQEMFGGQPYNWVLQCQYSMIKGLIDSAVKLRQEQMREEEGVRSAFWTSRFEQALLRGLMQMEHQSVITQTTIQAPQLTLICLLDYVDFRHPELDWRKVAPATAIWFSEMRDLPAFVETRPQ,not soluble
